Measured values published in the nanobody polyreactivity screen of Harvey et al. (2022).

Experiment: yeast display, Sf9 membrane polyspecificity reagent, FACS + sequencing; frameworks hold sequencing errors
Procedure, shortened: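 A synthetic nanobody library was expressed on Saccharomyces cerevisiae BJ5465 by galactose induction for 36–48 hours. The library was stained for 1 hour at 4 °C with 10% biotinylated, detergent-solubilized Sf9 membrane reagent and enriched with streptavidin microbeads before FACS. Low and high (top ~1%) gates were set on anti-HA fluorescence for expression and streptavidin fluorescence for reagent binding, and each polyreactivity label reflects the gate of origin.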

Row | Sequence | polyreactivity (PSR sort gate)
1 | QVQLVESGAGLVQAGGSLRLSCAASGIIFASNAMGWYRQAPGKERELLATINWTDSSTYYADSVKGRFTISRDNAKNTVYLQMNSLKPEDTAVYYCNAVPHWFYRYGRYDYWGQGTQVTVSS | low polyreactivity
2 | QVQLVESGAGLVQAGGSLRLSCAASGIIFTDYAMGWYRQAPGKERELVAANSSGGGSTYYADSVKGRFTISRDNAKNSVYLQLNSLKPDDTAVYDCAAQSSGSYGFDHWGQGTQVTVSS | high polyreactivity
3 | QVQLVESGAGLVQAGGSLRLSCAASGRIFQYNAMGWYRQAPGKERELVAAISYSTTRTYYAESVKSRFTISRDNAKITVYLQMKSLKPEVSGVYYCAARGYFWSSYKYDYWGLGTQVTVSS | high polyreactivity
4 | QVQLVESGAGLVQAGGSLRLSCAASGRIFVYNTMGWYRQAPGKEREFVAAITRSGGSTTYADSVKGRFTISRANAKNTVYLQRNSLKPEDTAVYYCAAGPFISYWVSRFGYWGQGTQVTVSS | high polyreactivity
5 | QVQLVESGAGLVQAGGSLRLSCAASGRTFFVNAMGWYRQAPGKERELVATITFSGDSTYYADSVKGRFTISRDNAKNTVFLQMNSLKPEDTAVYYCAARTGYGYTRYEYWGQGTQVTVSS | high polyreactivity
6 | QVQLVESGAGLVQAGGSLRLSCAASGRTFSRNAMGWYRQPPGKERELVATISRGGGITFYADSVKGRYTISRDNAKNTVYLQMNSLKPEDTAVYYCNADVRYVGLRRIVDYWGQGTQVTVSS | high polyreactivity
7 | QVQLVESGAGLVQAGGSLRLSCAASGRTLTYNAMGWYRQAPGKEREFVAAISVGGGSTYADSVKGRFTISRDNAKNTVYLQMNRLKPEDTAVYYCAAAYTKLYYYWGQGTQVTVSS | low polyreactivity
8 | QVQLVESGAGLVQAGGSLRLSCAASGSIINRNAMGGYRQAPGKERELVAAITRRGGSTYYADSVKGRFTISRDNAKNTVYLQKYSLKPEDTAVYYCNAVKALSSWSYEYWGQGTQGTVSS | high polyreactivity
9 | QVQLVESGAGLVQAGGSLRLSCAASGSSSLYNAMGWYRQAPGKERELVAAISSGGSTNYADSVKGRFTISRENAKNNVYLQMNSLQPEDTAVYYCAAVTVRRVSCAQYKQYDYWGLGTQVTVSS | high polyreactivity
10 | QVQLVESGAGLVQAGGSLRLSCAASGSTFESNTMGWYRQAPGKERELVAAISYSGGRTYYADSVKGRFTISRDNAKNTVYLQMNSLKPEDTAVYYCNADLYPYYWYTTGEFGYWGQGTQVTVSS | high polyreactivity
11 | QVQLVESGAGLVQAGGSLRLSCAASGSTFKPNVMGWYRQAPGKERELVAAITSTDDRTYYADSVKGRFTISRDNAKNTVYLQMNSLKPEDTAVYYCAVESLRDDFEYDYWGQGTQVTVSS | low polyreactivity
12 | QVQLVESGAGLVQAGGSLRLSCAASGSTFYMYAMGWDRTATGKERELLADISLSGVSTYYADSVKGRFTFSRDNAKHTVYLQMNSLKPEDTAVYYCAADVFYPGPWSYEYWGQGTHVTVSS | low polyreactivity
13 | QVQLVESGAGLVQAGGSLRLSCAASGSTLVTNAMGWYRQAPGKERELVAAITFSGGTTYYADSVKGRFTISRDNAKNTVYLQMNSLKPEDTAVYYCAAEIWLEYVGYDYWGQGTQVTVSS | high polyreactivity
14 | QVQLVESGAGLVQAGGSLRLSCAASGYIFYKNAMGWYRQAPGKERELVAAISTRGGSTYYADSVKGRFTISRDNAQNTVYLHMNSLKPEDTAVNYCAASQNRRDWGQGTQVTVSS | high polyreactivity
15 | QVQLVESGAGLVQAGGSLRLSCAASGYTFSPNDMGWYRQAPGKERELVAAITSSVGSTYYADSVKGRFTISRDNAKNTVYLQMNSLKPEDTAVYYCNKQDSSYYISGGGDYDYWGQGTQVTVSS | low polyreactivity
16 | QVQLVESGAGLVQAGGSLRLSCAASVSTLDLYAMGWYRQAPGKERELVAYISWSGGSTYYADSVKGRFTISRDNAKNTVYLQMNSLKPEDTAVYYCAAGNITPYRYYHGYYQSIYDYWGQGTQVTVSS | low polyreactivity
17 | QVQLVESGAGLVQAGGSLRLSCAAYGRIFGIYALGWYRQAPGKEREFVAAISDRSGSRTYYADSVKGRFTISRDNAKNTVYLQINSLKPEDTAVYYCAAGILRWKDRWFEYWGQGTQVTVSS | high polyreactivity
